Test results: paper PMC8262869, “The DnaK/DnaJ Chaperone System Enables RNA Polymerase-DksA Complex Formation in Salmonella Experiencing Oxidative Stress” (mBio, 2021)

B1: GST-DnaK (natural protein)
chain: not shown
notes: DnaK (Hsp70), Salmonella enterica serovar Typhimurium; dnaK cloned into BamHI and XhoI sites of pGEX-6P-1; source: E. coli BL21(DE3), purified (glutathione-Sepharose 4B)

How the values were obtained:
[1] = target: E. coli holoenzyme RNA polymerase (E. coli, UniProt P0A7Z4 1-329; P0A8V2 1-1342); assay: cell-based or functional assay
[2] = target: T1, DnaJ H33Q-6×His (Salmonella enterica serovar Typhimurium, UniProt P0A1G7 1-379, H33Q); assay: pull-down; GST fusion (bait) on glutathione-Sepharose 4B beads, 50 mM Tris-HCl pH 7.5, 4°C, 2 h with C-terminally 6×His-tagged prey; wash 50 mM NaCl, elution 500 mM NaCl; anti-6×His immunoblot; conditions: both partners purified
T1 construct: DnaJ, Salmonella enterica serovar Typhimurium; point mutant of full-length dnaJ in pET-22b(+); also called DnaJ H33Q recombinant variant; not shown: 6×His, C-terminal, kept

[3] = target: T2, DnaJ ΔZn1-6×His (Salmonella enterica serovar Typhimurium, UniProt P0A1G7 1-379, C147S | C150S | C200S | C203S); assay: as above; conditions: both partners purified
T2 construct: DnaJ, Salmonella enterica serovar Typhimurium; also called C147S C150S C200S C203S; not shown: 6×His, C-terminal, kept

[4] = target: T3, DnaJ C186H-6×His (Salmonella enterica serovar Typhimurium, UniProt P0A1G7 1-379, C186H); assay: as above; conditions: both partners purified
T3 construct: DnaJ, Salmonella enterica serovar Typhimurium; point mutant of full-length dnaJ in pET-22b(+); not shown: 6×His, C-terminal, kept

[5] = target: T4, DnaJ C268A-6×His (Salmonella enterica serovar Typhimurium, UniProt P0A1G7 1-379, C268A); assay: as above; conditions: both partners purified
T4 construct: DnaJ, Salmonella enterica serovar Typhimurium; point mutant of full-length dnaJ in pET-22b(+); not shown: 6×His, C-terminal, kept

[6] = target: T5, GST-DnaK T199A (Salmonella enterica serovar Typhimurium, UniProt Q56073 1-638, T199A); assay: as above; conditions: both partners purified
T5 construct: DnaK (Hsp70), Salmonella enterica serovar Typhimurium; point mutant of dnaK in pGEX-6P-1; also called recombinant DnaK T199A variant; source: E. coli BL21(DE3), purified (glutathione-Sepharose 4B)

[7] = target: B1; assay: as above; conditions: both partners purified

| Binder | livJ in vitro transcription (qRT-PCR): 5 μM oxidized DksA (GST tag removed), 5 nM RNA polymerase, 50 nM DnaJ, upon addition of 500 nM untagged DnaK [1] | binding result [2] | binding result [3] | binding result [4] | binding result [5] | binding result [6] | binding result [7] |
| --- | --- | --- | --- | --- | --- | --- | --- |
| oxidized GST-DksA (natural protein, cysteine residues oxidized (disulfide-bonded) by treatment with H2O2; positions not given, DksA, Salmonella enterica serovar Typhimurium; dksA cloned into BamHI and XhoI sites of pGEX-6P-1; For the in vitro transcription assays the GST tag was removed with PreScission protease and oxidation was with 1 mM H2O2; also called oxidized DksA; source: E. coli BL21(DE3), purified (glutathione-Sepharose 4B); treated with 100 μM H2O2 for 1 h at 37°C) MQEGQNRKTSSLSILAIAGVEPYQEKPGEEYMNEAQLSHFKRILEAWRNQLRDEVDRTVTHMQDEAANFPDPVDRAAQEEEFSLELRNRDRERKLIKKIEKTLKKVEDEDFGYCESCGVEIGIRRLEARPTADLCIDCKTLAEIREKQMAG | > 10 fold | binds | binds | binds | binds |  |  |
| DnaJ-6×His (natural protein, Salmonella enterica serovar Typhimurium, UniProt P0A1G7 1-379, looked up, DnaJ, Salmonella enterica serovar Typhimurium; full-length dnaJ in NdeI and XhoI sites of pET-22b(+); also called wild-type DnaJ protein; C-terminally 6×His-tagged DnaJ; not shown: 6×His, C-terminal, kept) MAKRDYYEILGVSKTAEEREIKKAYKRLAMKYHPDRNQGDKEAEAKFKEIKEAYEVLTDAQKRAAYDQYGHAAFEQGGMGGGFGGGFNGGADFSDIFGDVFGDIFGGGRGRQRAARGADLRYNMDLTLEEAVRGVTKEIRIPTLEECDVCHGSGAKAGTQPQTCPTCHGSGQVQMRQGFFAVQQTCPHCQGRGTLIKDPCHKCHGHGRVEKSKTLSVKIPAGVDTGDRIRLAGEGEAGEHGAPAGDLYVQVQVKQHPIFEREGNNLYCEVPINFAMAALGGEIEVPTLDGRVMLKVPSETQTGKLFRMRGKGVKSVRGGAQGDLLCRVVVETPVGLSEKQKQLLKDLQESFGGPTGEKNSPRSKSFFDGVKKFFDDLTR |  |  |  |  |  | binds | binds |
| B1 |  | binds |  |  |  |  |  |
